Patent publication US7052704B2, “Methods and compositions for lipidization of hydrophilic molecules” (University of Southern California, priority 1995, dated 2006)

B1: BBIssPal: palmityl disulfide conjugate of BBI, made from thiolated BBI and Pal-PDC (conjugate, UniProt P01055 40-110, looked up)
Bowman-Birk type proteinase …: DDESSKPCCDQCACTKSNPPQCRCSDMRLNSCHSACKSCICALSYPAQCFCVDITDFCYEPCKPSEDDKEN
modifications: palmityl disulfide conjugate
notes: palmityl disulfide conjugate of BBI, made from thiolated BBI and Pal-PDC
B2: BBIssPal(4): BBI modified with 4 palmitic acids (conjugate, UniProt P01055 40-110, looked up)
Bowman-Birk type proteinase …: B1 Bowman-Birk type proteinase …
modifications: 4 palmityl disulfide groups
notes: BBI modified with 4 palmitic acids
B3: BBIssOleic: oleic acid conjugated BBI, made by the identical procedure as BBIssPal (conjugate, UniProt P01055 40-110, looked up)
Bowman-Birk type proteinase …: B1 Bowman-Birk type proteinase …
modifications: oleic acid disulfide conjugate
notes: oleic acid conjugated BBI, made by the identical procedure as BBIssPal
B4: BBIssPal(2): BBI modified with 2 palmitic acids (conjugate, UniProt P01055 40-110, looked up)
Bowman-Birk type proteinase …: B1 Bowman-Birk type proteinase …
modifications: 2 palmityl disulfide groups
notes: BBI modified with 2 palmitic acids

What was measured:
[1] = test system: C3H 10T1/2(clone 8) cells; experiment: In vitro transformation assay (MCA-induced); format: cell-based; conditions: for transformed foci in the dishes scored / Fraction of dishes containing transformed foci / No. of dishes with transformed foci/No. of dishes: MCA 1 μg/ml 24 hr, then conjugates 1.0 μg/ml for first three weeks; for Fraction of dishes containing transformed foci / No. of dishes with transformed foci/No. of dishes: scored at six weeks; for retention of the biological (anti-transformation) activity of BBI: 1.0 μg/ml
Protocol: Transformation assays were carried out using C3H 10T1/2(clone 8) cells according to the published recommendations [Reznikoff, C. A. et al. (1973) Cancer. Res. 33, 3239–3249; Reznikoff, C. A. et al. (1973) Cancer. Res. 33, 3231–3238]. Stock cultures of mycoplasma-free cells were maintained by passing 50,000 cells per 75 cm^2 flask every seven days. Using this schedule, the cells were always passed approximately 2 days before reaching confluence. The stock culture was grown in Eagle's basal medium supplemented with 10% FBS, penicillin (100 units), and streptomycin (100 μg) and used for the transformation assays at passages of 9 to 14. The cells were passed by treating the stock cells with trypsin (0.1%) in PBS for 5 min and quenching the trypsin with 5 ml of the medium. This procedure was adapted to minimize spontaneous transformation in the stock cultures and maximize the plating efficiency in the petri dishes. The FBS stock used in the cultures was pre-screened to ensure that the serum was able to support the expression and the growth of the transformed cells.
For the transformation assays, C3H 10T1/2 cells (1000/dish) were seeded into 60 mm petri dishes and allowed to grow in a humidified 5% CO2 atmosphere in Eagle's basal medium, supplemented with 10% FBS, penicillin (100 units), and streptomycin (100 μg), for 24 hr. Subsequently, the cells were initiated by treatment with 25 μl of the 3-methylcholanthrene (MCA) in acetone stock solution ([…]) to a final concentration of 1 μg/ml of MCA (5 μg/5 ml). The cells were allowed to grow in the presence of the carcinogen or solvent for 24 hr, and the medium in each dish was then replaced with fresh medium containing no carcinogen or solvent. The medium in the dishes was replaced twice per week for the first two weeks of the assay, and thereafter once a week for the remainder four weeks of the assay. In the experiments designed to determine the transformation inhibitory activity of the conjugates, the cells were maintained in the medium containing the conjugates (1 μg/ml) for the first three weeks of the assay; thereafter, the cells were maintained in medium containing no added conjugates.
Six weeks after the carcinogen treatment, the cells were inspected under a microscope for adherence to the culture dishes and were washed with PBS and then fixed in 100% methanol. The fixed monolayers were then stained with Giemsa stain. 20 dishes per group were treated in each experiment. In addition to the test groups, all the transformation assays contained at least three other groups: negative control (not treated with carcinogen or solvent), acetone control (treated with 25 μl of acetone), and positive control [treated with MCA (1 μg/ml) in 25 μl of acetone]. The transformed foci (>3 mm in diameter) in the plates were studied under a microscope and classified according to published guidelines as types I, II, or III [Landolph, J. R. (1985) Transfomatin assay of established cell lines: Mechanism and Application (ed. Kakunaga, T., and Yamasaki, H.) IARC Scientific Publications, Lyon, France pp. 185–201]. Briefly, type III foci were dense, multilayered, basophilic, areas of cell growth which stained to a deep blue color with Giemsa and had rough criss-crossed edges. Type II foci were also dense, multilayered, areas of cell growth, but were stained to a purple color with Giemsa and had smoother, more defined edges compared to Type III foci. Type I foci were not scored in the assay.
BBI, either as the free protein or in conjugated form to palmitic or oleic acid, was added to the cultures at 1.0 μg/ml for the first three weeks of the transformation assay period starting immediately after the MCA treatment. MCA-treated cells were exposed to 3-methylcholanthrene, dissolved in 25 /μl of acetone, at a concentration of 1 μg/ml for 24 hr. Acetone-treated cells were exposed to 25 μl of acetone for 24 hr only. […]

C3H 10T1/2 cells = experiment: Plating efficiency in conjunction with transformation assay; format: cell-based; conditions: 200 cells/dish, 10 days; conjugates 1.0 μg/ml after MCA 1 μg/ml 24 hr
Protocol: The plating efficiency (PE) of the cells was also studied in conjunction with each of the transformation assays. To determine the PE of the cells in the different treatment groups, cells (200 cells/dish) were seeded into three 60-mm petri dishes per experiment group and treated in the identical manner as the transformation assay cells. The cells in these assays were terminated at 10 days, fixed with 100% methanol, and stained with giemsa; the colonies of 50 cells or more visible under a microscope were then counted. The plating efficiency is defined as the (number of colonies/number of cells seeded)*100.

[2] = test system: Human colon carcinoma cells (Caco-2)
[3] = mouse, in vivo, iv, 3 mg/kg
Caco-2 monolayers = experiment: Transport of single- and multiple-conjugates across Caco-2 monolayers in transwells; format: cell-based, Human; conditions: for order of the transport extent (cumulative transport): Caco-2 transwells, n=3
Protocol: Confluent cell monolayers, 2 to 3 weeks old, and having a TEER value of approximately 500 Ωcm^2, were first incubated with Dulbecco's MEM containing 1% of FBS for 30 min at 37° C. Subsequently, the incubation medium was removed, and the ^125I-BBI (10 μg/ml) conjugates in 1.5 ml of the medium was added to the apical chamber of the transwells. To the basal chamber, 2.5 ml of the medium was added and the transwells were incubated at 37° C. At predetermined times, the entire basal chamber medium (2.5 ml) from each transwell was removed and counted for radioactivity using a gamma counter. In each experiment, typically seven samples were taken at 1, 2, 3, 4, 5, 6 and 24 hr post-incubation. After the 24 hr samples were taken, the cell monolayers were rinsed three times with ice-cold PBS, cut out of the inserts, and counted for accumulated radioactivity using a gamma counter.
The integrity of the ^125I-BBI conjugates transported across the monolayers was studied using Sephadex G50 gel-filtration chromatography. Briefly, after the basal medium was sampled at 24 hr, 1.0 ml of the medium was centrifuged at 2000 rpm and then eluted from a G50 column (10 ml) using PBS; 1 ml fractions were collected and the fraction-associated radioactivity was determined using a gamma counter. Intact conjugates eluted at column void volume and fragments smaller than 1 kDa were eluted at or above the column volume.
In the transwell experiments, the conjugates were incubated with the apical side of the cells for 1 hr at 37° C. The transwells were then rinsed three times with ice-cold PBS and then reincubated with serum free medium. The release of the conjugates into the apical and the basal medium was chased for 24 hr by counting the entire basal or the apical medium at different times. The total counts obtained at the end of the chase period (transwells+media counts were added, and the release of the conjugates (% of total) at different times was calculated. To ensure that the counts obtained in the transwells at 24 hr were due to the presence of the conjugates in the cells and not non-specific binding to the plastic, the transwells were exposed to trypsin for 10 min, rinsed three times with ice-cold pbs, and subsequently counted for accumulated radioactivity.
BBI was modified with 2 or 4 palmitic acids, and the transport was determined in transwells. The cumulative transport of BBI, BBI modified with 4 palmitic acids, and BBI modified with 2 palmitic acids in Caco-2 monolayers were determined as BBI (ng/monolayer) ± SEM, n=3. The order of the transport extent was BBIssPal(4)>BBI>BBIssPal(2). The results of the internalization of the conjugates into the same cells were determined as the ng of BBI internalized per monolayer. […] The basal media obtained at 24 hr from the transwells was analyzed using a G50 column. […] However, a small, but significant, amount of the basal media of BBIssPal(2) consisted of intact conjugate. This quantity consisted of between about 10 and about 20% of the total radioactivity present in the basal medium.

| Molecule | transformed foci in the dishes scored [1] | Fraction of dishes containing transformed foci [1] | No. of dishes with transformed foci/No. of dishes [1] | Plating Efficiency (%) (C3H 10T1/2 cells) | retention of the biological (anti-transformation) activity of BBI [1] | binding to BSA [2] | internalization, fold increase over that of BBI [2] [fold] | reduction of uptake after reduction with DTT [2] | reduction of uptake by defatted-BSA [2] [%] | uptake, fold higher than 125I-BBI [2] | uptake, fold higher than native-BBI [2] [fold] | uptake, fold higher than that of 125I-BBI [2] [fold] | kidney clearance, fold lower than native-BBI [3] | liver accumulation, fold higher than BBI [3] | lung accumulation, fold higher than BBI [3] | retention in the liver at 24 hr [3] | order of the transport extent (cumulative transport) (Caco-2 monolayers) | transcytosis across the monolayers (G50 analysis of basal media) (Caco-2 monolayers; basal media at 24 hr) | internalization into the cells (rank) (Caco-2 monolayers; same Caco-2 monolayers, per monolayer) | blood levels, fold higher than BBI [3] |
| --- | --- | --- | --- | --- | --- | --- | --- | --- | --- | --- | --- | --- | --- | --- | --- | --- | --- | --- | --- | --- |
| Cc1ccc2cc3c(ccc4ccccc43)c3c2c1CC3 [MCA, 3-methylcholanthrene, reference compound] | 6 out of the 19 dishes scored contained type III foci | 0.32 | 6/19 | 21 ± 3.0 |  |  |  |  |  |  |  |  |  |  |  |  |  |  |  |  |
| B1 | one type II focus out of the 20 dishes | 0.05 | 1/20 | 23 ± 3.0 | retained the original biological activity of BBI | binds strongly to BSA | 35 | approximately 80% | 82 | approximately 100 fold | 10 | 80 | about 4 fold | approximately 5 fold | approximately 2 fold | remained high in the liver even at 24 hr post-injection |  |  |  |  |
| B2 |  |  |  |  |  |  |  |  |  |  |  |  |  |  |  |  | BBIssPal(4)>BBI>BBIssPal(2) | neither BBI nor BBIssPal(4) was transcytosed | highest uptake |  |
| B3 | no transformed foci | 0 | 0/20 | 24 ± 3.5 | retained the original biological activity of BBI |  |  |  |  | about 108 fold |  |  | about 4 fold | about 4 fold | about 2 fold | significant levels of the conjugate present in the liver even at 24 hr post-injection |  |  |  | about 4 fold |
| B4 |  |  |  |  |  |  |  |  |  |  |  |  |  |  |  |  | BBIssPal(4)>BBI>BBIssPal(2) |  |  |  |
